Source: PMC10200994 (2023)

B1: STAT5B (unphosphorylated, wild-type), fluorophore fusion [not stated] / STAT5A (unphosphorylated, wild-type), fluorophore fusion [not stated] (parent complex)
chain 1: MAVWIQAQQLQGEALHQMQALYGQHFPIEVRHYLSQWIESQAWDSVDLDNPQENIKATQLLEGLVQELQKKAEHQVGEDGFLLKIKLGHYATQLQNTYDRCPMELVRCIRHILYNEQRLVREANNGSSPAGSLADAMSQKHLQINQTFEELRLVTQDTENELKKLQQTQEYFIIQYQESLRIQAQFGPLAQLSPQERLSRETALQQKQVSLEAWLQREAQTLQQYRVELAEKHQKTLQLLRKQQTIILDDELIQWKRRQQLAGNGGPPEGSLDVLQSWCEKLAEIIWQNRQQIRRAEHLCQQLPIPGPVEEMLAEVNATITDIISALVTSTFIIEKQPPQVLKTQTKFAATVRLLVGGKLNVHMNPPQVKATIISEQQAKSLLKNENTRNDYSGEILNNCCVMEYHQATGTLSAHFRNMSLKRIKRSDRRGAESVTEEKFTILFESQFSVGGNELVFQVKTLSLPVVVIVHGSQDNNATATVLWDNAFAEPGRVPFAVPDKVLWPQLCEALNMKFKAEVQSNRGLTKENLVFLAQKLFNNSSSHLEDYSGLSVSWSQFNRENLPGRNYTFWQWFDGVMEVLKKHLKPHWNDGAILGFVNKQQAHDLLINKPDGTFLLRFSDSEIGGITIAWKFDSQERMFWNLMPFTTRDFSIRSLADRLGDLNYLIYVFPDRPKDEVYSKYYTPVPCESATAKAVDGYVKPQIKQVVPEFVNASADAGGGSATYMDQAPSPAVCPQAHYNMYPQNPDSVLDTDGDFDLEDTMDVARRVEELLGRPMDSQWIPHAQS
chain 2: MAGWIQAQQLQGDALRQMQVLYGQHFPIEVRHYLAQWIESQPWDAIDLDNPQDRAQATQLLEGLVQELQKKAEHQVGEDGFLLKIKLGHYATQLQKTYDRCPLELVRCIRHILYNEQRLVREANNCSSPAGILVDAMSQKHLQINQTFEELRLVTQDTENELKKLQQTQEYFIIQYQESLRIQAQFAQLAQLSPQERLSRETALQQKQVSLEAWLQREAQTLQQYRVELAEKHQKTLQLLRKQQTIILDDELIQWKRRQQLAGNGGPPEGSLDVLQSWCEKLAEIIWQNRQQIRRAEHLCQQLPIPGPVEEMLAEVNATITDIISALVTSTFIIEKQPPQVLKTQTKFAATVRLLVGGKLNVHMNPPQVKATIISEQQAKSLLKNENTRNECSGEILNNCCVMEYHQATGTLSAHFRNMSLKRIKRADRRGAESVTEEKFTVLFESQFSVGSNELVFQVKTLSLPVVVIVHGSQDHNATATVLWDNAFAEPGRVPFAVPDKVLWPQLCEALNMKFKAEVQSNRGLTKENLVFLAQKLFNNSSSHLEDYSGLSVSWSQFNRENLPGWNYTFWQWFDGVMEVLKKHHKPHWNDGAILGFVNKQQAHDLLINKPDGTFLLRFSDSEIGGITIAWKFDSPERNLWNLKPFTTRDFSIRSLADRLGDLSYLIYVFPDRPKDEVFSKYYTPVLAKAVDGYVKPQIKQVVPEFVNASADAGGSSATYMDQAPSPAVCPQAPYNMYPQNPDHVLDQDGEFDLDETMDVARHVEELLRRPMDSLDSRLSPPAGLFTSARGSLS

Variants of: B1
Assay: co-localization assay (quantitative fluorescence microscopy in HeLa cells); bait S5A-NES, test S5B-L82A; 27 cells (parent 17 cells); parent: 0.97

Row | Variant | screen value
1 | chain 1 L82A | 0.65
